Data from patent publication US11149086B2, “KV1.3 binding immunoglobulins” (Ablynx N.V., priority 2014, dated 2021).

Columns and labels:
CCR7−CD45RA− T cells = type: cell-based, human
From the text: The purified anti-Kv1.3 Nanobodies were characterized in a T Cell-activation assay. Human T Cells were first collected from Buffy Coat blood (from healthy volunteers, Bloodbank Gent) using RosetteSep (StemCell Technologies, #15061) followed by an enrichment on Ficoll-Paque™ PLUS (GE Healthcare #17-1440-03). CCR7−CD45RA− T cells were isolated through negative selection using biotinylated antibodies against CD45RA (BD Bioscience #624008) and CCR7 (BD Bioscence #624009) in addition to the Dynabeads Biotin Binder (Invitrogen #110.47). The purity of the population was afterwards checked with anti-CD3 (eBioscience #12-0037-73); anti-CD8 (BD Bioscience #345775); anti-CD4 (BD Bioscience #345771); anti-CD45RO (BD Bioscience #555493); anti-CD45RA (BD Bioscience #550855); anti-rat IgG (Jackson ImmunoResearch Laboratories #112-116-143); anti-CD19 (BD Bioscience #555413) and anti-Human CCR7 (R&D Systems #MAB197) labeled antibodies in flow cytometric assay.
Isolated CCR7^−CD45RA^− T Cells were then stimulated on anti-CD3 (eBioscience 16-0037-85; 540 ng/ml) coated 96-well plates at a concentration of 200 000 cells/well in absence or presence of dilution series of anti-Kv1.3 antibodies and ShK positive control (Smartox, #08SHK001). After 72 h, IFN-gamma production was measured with anti-human IFNγ antibody capture in ELISA (BD Bioscence #551221) combined with biotinylated anti-human IFNγ (BD Bioscience, #554550) and streptavidin-HRP (Dakocytomation #P0397) as detection (FIG. 11A-11B).
In addition, also CD25 expression was measured in flow cytometry, using an anti-CD25 antibody (BD Pharmingen, cat 557138) (FIG. 11C-11D). […]

human Kv1.3 = target: T1, human Kv1.3 (Homo sapiens, UniProt P22001); test: IonWorks Quattro automated perforated patch clamp, Kv1.3-expressing CHL cells; type: cell-based; details: 6 to 7 min incubation
T1 construct: cell lines stably expressing the full length human Kv1.3 channel
From the text: Selected Nanobodies were electrophysiologically characterized on human Kv1.3 on the IonWorks automated perforated-Patch Clamp using Kv1.3-expressing Chinese Hamster Lung (CHL) cells. The procedure for evaluating the modulatory effect of the purified Nanobodies on human Kv1.3 via electrophysiological recordings is given below.
IonWorks Quattro (Molecular Devices) is a second-generation screening instrument that provides membrane voltage control and provides a direct electrophysiological assay for screening and characterization of compounds. It is an automated, high-throughput planar perforated patch clamp that uses a 384-well PatchPlate™ substrate.
Extracellular solution contained (in mM): 138 NaCl, 2.7 KCl, 0.9 CaCl2, 0.5 MgCl2, 8 Na2HPO4, and 1.5 KH2PO4 (pH 7.3 with NaOH, and 285-290 mOsmolar). The intracellular solution contained (in mM): 100 K-gluconate, 40 KCl, 3.2 EGTA, 5 HEPES and 3.2 MgCl2 (pH 7.3 with KOH, and 300-315 mOsmolar). These solutions were freshly made, stocked for no longer than a month at 4° C. and filtered prior to use. The selected Nanobodies were directly diluted in extracellular solution to obtain a 3 μM sample solution. […]
The basic principles of IonWorks automated patch clamp electrophysiology are described by Schroeder et al. (J Biomol Screen 8(1):50-64, 2003). […] In PPC mode, an ensemble average of the current from up to 64 cells per well was recorded. […]

T1 sequence (P22001 whole entry): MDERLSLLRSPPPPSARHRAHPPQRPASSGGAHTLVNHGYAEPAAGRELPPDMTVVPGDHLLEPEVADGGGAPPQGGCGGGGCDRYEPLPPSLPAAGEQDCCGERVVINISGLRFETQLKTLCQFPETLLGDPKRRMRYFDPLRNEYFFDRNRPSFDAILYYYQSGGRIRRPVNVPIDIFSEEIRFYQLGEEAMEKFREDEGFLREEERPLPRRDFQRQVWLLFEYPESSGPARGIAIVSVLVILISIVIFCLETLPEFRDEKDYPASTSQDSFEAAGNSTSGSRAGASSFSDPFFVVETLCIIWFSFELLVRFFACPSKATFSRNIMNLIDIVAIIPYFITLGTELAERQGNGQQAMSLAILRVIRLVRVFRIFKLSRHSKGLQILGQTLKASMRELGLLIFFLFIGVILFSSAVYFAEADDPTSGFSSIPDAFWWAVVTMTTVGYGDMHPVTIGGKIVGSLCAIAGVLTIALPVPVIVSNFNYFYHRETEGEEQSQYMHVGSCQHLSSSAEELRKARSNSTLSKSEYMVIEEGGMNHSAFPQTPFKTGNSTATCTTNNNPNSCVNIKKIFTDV

B1: A019400003: monovalent anti-Kv1.3 Nanobody, family 1 (protein)
VHH: EVQLVESGGGLVQAGGSLSLSCTASGGTFRNFGMGWFRQAQGKEREFVAAISRTGGHTYYQDSVKGRFTISKDNAKNILSLQMNSLKPEDTAVYYCAARFRFGDGTYYYQRAFYDFWGQGTQVTVSS
modifications: Nanobody sequence
- inhibition of T-cell stimulation (IFNγ, CD25), in words (CCR7−CD45RA− T cells; anti-CD3 stimulation): did not block
- IC50 (in M) CD25 read out (CCR7−CD45RA− T cells; monovalent Nanobodies, plate bound anti-CD3): no effect
- IC50 (in M) IFNγ read out (CCR7−CD45RA− T cells; monovalent Nanobodies, plate bound anti-CD3, 72 h): no effect
- effect on Kv1.3 current traces on IonWorks, in words (human Kv1.3): biphasic modulatory effect
